From the RNAGym collection of RNA variant scans (doi:10.7554/elife.90254)

B1: LINE1-full (parent)
chain: UACGUAGGUGGUUUUCCCCUGAUAGUGCUAAGGGGGCCUGGAAGUUUGGACUGGGCAGAGCUCAACACAGCGUGGCAAAGUGGCUGUGGCUAGACUGCCUCUCUGGAUUCCUCGUCACUCAGCAGGGCAUCUCUGAGAGAAAUGCC

Variants of: B1
Experiment: self-cleavage, relative activity (ratio to wild type); higher = more cleavage; in vitro, sequencing; the parent is a self-cleaving ribozyme

Variant	self-cleavage
UACGUAGGUGAUUUUCCCCUGAUAGUGCUAAGGGGGCCUGGAAGUUUGGACUGGGCAGAGCUCAACACAUCGUGGCAAAGUGGCUGUGGCUAGACUGCCUCUCUGGAUUCCUCGUCACUCAGCAGGGCAUCUCUGAGAGAAAUGCC	0.07
UACGUAGGUGAUUUUCCCCUGAUAGUGCUAAGGGGGCCUGGAAGUUUGGACUGGGCAGAGCUCAACACAGCGUGGCAAAGUGGCUGUGGCUAGACUGCCUCUCUGGAUUCCUCGUCACUCAGCAGAGCAUCUCUGAGAGAAAUGCC	1.2
UACGUAGGUGAUUUUCCCCUGAUAGUGCUAAGGGGGCCUGGAAGUUUGGACUGGGCAGAGCUCAACACAGCGUGGCAAAGUGGUUGUGGCUAGACUGCCUCUCUGGAUUCCUCGUCACUCAGCAGGGCAUCUCUGAGAGAAAUGCC	0.15
UACGUAGGUGAUUUUCCCCUGAUAGUGCUAAGGGGGCCUGGAAGUUUGGACUGGGCAGAGCUCAACACAGCGUGGCAAAGUGGCUGUGGCUAGACUGCCUCUCUGGGUUCCUCGUCACUCAGCAGGGCAUCUCUGAGAGAAAUGCC	1.65
UACGUAGGUGAUUUUCCCCUGAUAGUGCCAAGGGGGCCUGGAAGUUUGGACUGGGCAGAGCUCAACACAGCGUGGCAAAGUGGCUGUGGCUAGACUGCCUCUCUGGAUUCCUCGUCACUCAGCAGGGCAUCUCUGAGAGAAAUGCC	1.25
UACGUAGGUGAUUUUCCCCUGAUAGUGCUAAGGGGGCCUGGAAGUUUGGACUGGGCAGAGCUCAACACAGCGUGGCAAAGUGGCUGUGGCUAGACUGCCUCUCUGGAUUCCUCGUCACUCAGCAGGGCAUCUCUGAGAAAAAUGCC	1.91
UACGUAGGUGAUUUUCCCCUGAUAGUGCUAAGGGGGCCUGGAAGUUUGGCCUGGGCAGAGCUCAACACAGCGUGGCAAAGUGGCUGUGGCUAGACUGCCUCUCUGGAUUCCUCGUCACUCAGCAGGGCAUCUCUGAGAGAAAUGCC	1.24
UACGUAGGUGAUUUUCCCCUGAUAGUGCUAAGGGGGCCUGGGAGUUUGGACUGGGCAGAGCUCAACACAGCGUGGCAAAGUGGCUGUGGCUAGACUGCCUCUCUGGAUUCCUCGUCACUCAGCAGGGCAUCUCUGAGAGAAAUGCC	1.43
UACGUAGGUGAUUUUCCCCUGAUAGUGCUAAGGGGGCCUGGAAGUUUGGACUGGGCAGAGCUCAACACAGCGUGGCAAAGUGGCUGUGGCUAGACUGCCUCUCUGGAUUCCUCGUCACUCAGCGGGGCAUCUCUGAGAGAAAUGCC	0.85
UACGUAGGUGAUUUUCCCCUGAUAGUGCUAAGGGGGCCUGGAAGUUUGGACUGGGCAGAGCUCAACACAGCGUGGCGAAGUGGCUGUGGCUAGACUGCCUCUCUGGAUUCCUCGUCACUCAGCAGGGCAUCUCUGAGAGAAAUGCC	1.08
UACGUAGGUGAUUUUCCCCUGAUAGCGCUAAGGGGGCCUGGAAGUUUGGACUGGGCAGAGCUCAACACAGCGUGGCAAAGUGGCUGUGGCUAGACUGCCUCUCUGGAUUCCUCGUCACUCAGCAGGGCAUCUCUGAGAGAAAUGCC	1.4
UACGUAGGUGAUUUUCCCCUGAUAGUGCUAAGGGGGCCUGGAAGUUUGGACCGGGCAGAGCUCAACACAGCGUGGCAAAGUGGCUGUGGCUAGACUGCCUCUCUGGAUUCCUCGUCACUCAGCAGGGCAUCUCUGAGAGAAAUGCC	1.41
UACGUAGGUGAUUUUCCCCUGAUAGUGCUAAGGGGGCCUGGAAGUUUGGACUGGGCAGAGCUCAACACAGCGUGGCAAAGUGGCUGUGGCUAGACUGCCUCUCUGGAUUCCUCGUCACUUAGCAGGGCAUCUCUGAGAGAAAUGCC	1.35
UACGUAGGUGAUUUUCCCCUGAUAGUGCUAAGGGGGCCUGGAAGUUUGGACUGGGCAGAGCUCAACACAGCGUGGCAAAGUGGCUGUGGCUAGACUGCCUCUCUAGAUUCCUCGUCACUCAGCAGGGCAUCUCUGAGAGAAAUGCC	1.27
UACGUAGGUGAUUUUCCCCUGAUAGUGCUAAGGGGGCCUGGAAGUUUGGACUGGGCAGAGCUCAACACAGCGUGGCAAAGUGGCUGUGGCUAGACUGCCUCUCUGGAUUCCUCGUCACUCAGCAGGGCAUCUCUGAGGGAAAUGCC	1.93
UACGUAGGUGAUUUUCCCCUGAUAGUGCUAAGGGGGCCUGGAAGUUUGGACUGGGCAGAGCUCAACACGGCGUGGCAAAGUGGCUGUGGCUAGACUGCCUCUCUGGAUUCCUCGUCACUCAGCAGGGCAUCUCUGAGAGAAAUGCC	0.48
UACGUAGGUGAUUUACCCCUGAUAGUGCUAAGGGGGCCUGGAAGUUUGGACUGGGCAGAGCUCAACACAGCGUGGCAAAGUGGCUGUGGCUAGACUGCCUCUCUGGAUUCCUCGUCACUCAGCAGGGCAUCUCUGAGAGAAAUGCC	0.99
UACGUAGGUGAUUUUCCCCUGAUAGUGCUAAGGGGGCCUGGAGGUUUGGACUGGGCAGAGCUCAACACAGCGUGGCAAAGUGGCUGUGGCUAGACUGCCUCUCUGGAUUCCUCGUCACUCAGCAGGGCAUCUCUGAGAGAAAUGCC	1.42
UACGUAGGUGAUUUUCCCCUGAUAGUGCUAAGGGGGCCUGGAAGUUUGGACUGGGCAGAGCUCAACACAGCGUGGCAAAGUGGCUGUGGCUAGGCUGCCUCUCUGGAUUCCUCGUCACUCAGCAGGGCAUCUCUGAGAGAAAUGCC	0.08
UACGUAGGUGAUUUUCCCCUGAUAGUGCUAAGGGGGCCUGGAAGUUUGGACUGGGCAGAGCUCCACACAGCGUGGCAAAGUGGCUGUGGCUAGACUGCCUCUCUGGAUUCCUCGUCACUCAGCAGGGCAUCUCUGAGAGAAAUGCC	0.1
